The source of these data is patent US20040166109A1 (AVENTIS PHARMA S A, published 2004).

The labels stand for the following.
B2: LexA fusion of the PTB1 domain of the human FE65 protein (amino acids 395 to 543), expressed from pLex-FE65PTB1 (other)
chain: PPRNTNPGIKCFAVRSLGWVEMTEEELAPGRSSVAVNNCIRQLSYHKNNLHDPMSGGWGEGKDLLLQLEDETLKLVEPQSQALLHAQPIISIRVWGVGRDSGRDFAYVARDKLTQMLKCHVFRCEAPAKNIATSLHEICSKIMAERRNA
notes: Two-hybrid bait expressed in yeast strain L40; PTB1 fragment cloned between XmaI and SalI downstream of LexA; also called PTB1 domain of FE65; not shown: LexA protein encoded by vector pLex9 (pBTM116); N-terminal fusion partner

What all share (assay): yeast two-hybrid (LexA bait, GAL4 AD prey), beta-galactosidase filter assay
The target of assay [1] is B2.
Assay [2] deals with T1, GAL4 transactivating domain fusion of the central region of human hnRNPL (amino acids 116 to 464), brain … (human, UniProt P14866 147-495, limits assumed).
T1 construct: Two-hybrid prey isolated in the screen; also called central portion of hnRNPL
T1 sequence: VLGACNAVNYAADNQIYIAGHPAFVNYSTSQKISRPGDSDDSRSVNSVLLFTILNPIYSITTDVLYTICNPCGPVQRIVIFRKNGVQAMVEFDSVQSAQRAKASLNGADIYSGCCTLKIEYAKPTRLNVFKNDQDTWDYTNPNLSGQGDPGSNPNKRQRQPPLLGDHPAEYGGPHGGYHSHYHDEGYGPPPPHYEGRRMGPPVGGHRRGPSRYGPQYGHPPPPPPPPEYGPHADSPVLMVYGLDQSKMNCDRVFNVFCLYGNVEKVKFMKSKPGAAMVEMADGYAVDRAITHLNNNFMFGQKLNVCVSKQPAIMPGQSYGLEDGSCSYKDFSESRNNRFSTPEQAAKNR

Assay [3] addresses T2, GAL4 transactivating domain fusion of the FEBP1 (FE65 Binding PTB1 domain protein) fragment of 337 amino … (human, UniProt Q9UH62 44-379, limits assumed).
T2 construct: Two-hybrid prey isolated from a human brain cDNA library; a fragment of FEBP1, limits on the whole protein not known; also called fragment of the FEBP1 protein
T2 sequence: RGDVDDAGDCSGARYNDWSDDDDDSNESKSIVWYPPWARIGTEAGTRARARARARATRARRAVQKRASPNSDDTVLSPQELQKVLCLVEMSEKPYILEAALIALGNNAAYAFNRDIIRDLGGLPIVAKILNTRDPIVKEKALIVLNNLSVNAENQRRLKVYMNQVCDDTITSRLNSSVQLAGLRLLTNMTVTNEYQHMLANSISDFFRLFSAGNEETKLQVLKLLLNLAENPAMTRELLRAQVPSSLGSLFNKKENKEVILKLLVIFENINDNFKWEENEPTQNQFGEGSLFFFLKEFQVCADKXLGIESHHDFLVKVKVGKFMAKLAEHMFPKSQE

B1: GAL4 transactivating domain fusion of the cytoplasmic domain of the APP protein, expressed from pGAD-App (other, UniProt P05067 723-770, looked up, not shown: large carriers)
chain: LKKKQYTSIHHGVVEVDAAVTPEERHLSKMQQNGYENPTYKFFEQMQN
notes: domain: cytoplasmic domain; Control prey; also called C-terminal domain of the APP
On to B1, for which the binding result in assay [1] was “no binding”.

Turning to B2, the binding result in assay [2] and in assay [3] was “binds” in each case.
